# Measured values published in paper PMC6036693, “An iterative computational design approach to increase the thermal endurance of a mesophilic enzyme” (Biotechnology for Biofuels, 2018).
# B1: PDC_(2.03), computationally designed thermostable variant of Zymomonas mobilis pyruvate decarboxylase (enzyme)
# chain: MDYTVGTYLAERLVQIGLKHHFAVAGDYNLVLLDNLLDNKNMEQVYCCNELNCGFSAEGYARAKGAAAAVVTYSVGALSAFDAIGGAYAENLPVILISGAPNNNDHAAAHVLHHALGKTDYHYQLEMAKNITAAAEAIYTPEEAPAKIDHVIKTALREKKPVYLEIACNIASMPCAAPGPASALFNDEASDEASLNAAVEETLKFIENRDKVAVLVGSKLRAAAAEEAAVKFADALGGAVATMAAAKSFFPEENPHYIGTSWGEVSYPGVEKTMKEADAVIALAPVFNDYSTTGWTDIPDPKKLVLAEPRSVVVNGIRFPSVHLKDYLTRLAEKVSKKTGALDFFKSLNAGELKKADPADPSAPLVNAEIARQIEDLLTPNTTVIAETGDSWFNAQRMKLPNGARVEYEMQWGHIGWSVPAAFGYAVGAPERRNILMVGDGSFQLTAQEVAQMVRLKLPVIIFLINNYGYTIEVMIHDGPYNNIKNWDYAALMEVFNGNGGYDSGAGKGLKAKTAAELEEAIKVALDNTDGPTLIECFIAREDCTEELVKWGERVAAANSRKPVNKLL
# notes: the wild-type structures 2WVA and 2WVG served as design template and search model; Crystallised with thiamine pyrophosphate (TPP) and Mg2+; the asymmetric unit of 5TMA holds two molecules; also called variant 2.03; source: E. coli BL21 (DE3), purified (HisPur Cobalt column, Superdex 200 size-exclusion chromatography)
# Target: the molecule itself
# Assay: crystal structure; PDC_(2.03) at 6 mg/mL in 20 mM Tris pH 7.5, 100 mM NaCl, 1 mM MgCl2, 0.5 mM DTT, 0.1 mM TPP; crystals grown in 0.1 M MES monohydrate pH 6.0, 2.4 M ammonium sulfate at 20 °C; two molecules in the asymmetric unit
protein,measurement,value
B1,binding result,binds
